Measured values reported in patent US6005086, “Farnesoid activated receptor polypeptides, and nucleic acid encoding the same” (The Salk Institute for Biological Studies).

Experiments:
FAR-RXRalpha heterodimer [1] = molecular target: T1, FAR-RXRalpha heterodimer (Rattus norvegicus (FAR) / Homo sapiens …, UniProt Q62735;P19793 Q62735:1-469,P19793:1-462); experiment: EMSA; cooperative binding; details: tags: rabbit reticulocyte lysate TNT, Promega; label: 32P (Klenow)
Experimental: (§1) It was next sought to determine the DNA binding properties of the FAR-RXRα complex. Because FAR and EcR share 100% sequence identity in the DNA recognition helix (P-box, Cys^141-Lys^145), it was examined whether the FAR-RXRα complex could recognize the hsp27 […] (EcRE; Yao et al., *Cell* 71:63–72 (1992)). Electrophoretic mobility shift analysis was performed using [^32P]-labeled DNA and in vitro translated FAR and RXRα. Proteins used in electrophoretic mobility shift assays were prepared by translation in a rabbit reticulocyte lysate system (TNT, Promega). Proteins (1 µl) were incubated for 20 minutes at room temperature with 100,000 cpm of Klenow-labeled probes in 10 mM Tris pH 8, 100 mM KCl, 6% glycerol, 0.05% NP-40, 1 mM DTT, 100 ng/µl poly dI dC and then electrophoresed through a 5% polyacrylamide gel in 0.5×TBE. The gel was autoradiographed for 1.5 hours with an intensifying screen.

FAR-RXRalpha heterodimer [2] = molecular target: T1, FAR-RXRalpha heterodimer; experiment: EMSA; half-site substitutions abolish binding; details: tags: rabbit reticulocyte lysate TNT, Promega; label: 32P (Klenow)
Experimental: as §1

FAR-RXRalpha heterodimer [3] = molecular target: T1, FAR-RXRalpha heterodimer; experiment: cell_activity; 50 uM JH III; 76-fold with 100 nM LG69, 212-fold with both; parental MTV reporter lacking EcREs not activated by JH III; details: tags: CMV expression vectors in CV-1 cells
Experimental: Thus, with reference to FIG. 5A, CV-1 cells were transiently transfected with hsp27-EcRE×5 MTV-luciferase alone (−) or with expression vectors for rat FAR and/or human RXRα. Reporter activity was assayed after treating cells with or without 50 µM JH III.

FAR-RXRalpha heterodimer [4] = molecular target: T1, FAR-RXRalpha heterodimer; experiment: EMSA; mutated element not recognized; details: tags: rabbit reticulocyte lysate TNT, Promega; label: 32P (Klenow)
Experimental: as §1

RXRalpha = RXRalpha (UniProt P19793 P19793:1-462); experiment: EMSA; RXRalpha alone, no high affinity binding; details: tags: rabbit reticulocyte lysate TNT, Promega; GenBank X52773 cited for human RXRalpha; label: 32P (Klenow)
Experimental: as §1

T1 sequence (Q62735 whole entry, chain 1 of 2): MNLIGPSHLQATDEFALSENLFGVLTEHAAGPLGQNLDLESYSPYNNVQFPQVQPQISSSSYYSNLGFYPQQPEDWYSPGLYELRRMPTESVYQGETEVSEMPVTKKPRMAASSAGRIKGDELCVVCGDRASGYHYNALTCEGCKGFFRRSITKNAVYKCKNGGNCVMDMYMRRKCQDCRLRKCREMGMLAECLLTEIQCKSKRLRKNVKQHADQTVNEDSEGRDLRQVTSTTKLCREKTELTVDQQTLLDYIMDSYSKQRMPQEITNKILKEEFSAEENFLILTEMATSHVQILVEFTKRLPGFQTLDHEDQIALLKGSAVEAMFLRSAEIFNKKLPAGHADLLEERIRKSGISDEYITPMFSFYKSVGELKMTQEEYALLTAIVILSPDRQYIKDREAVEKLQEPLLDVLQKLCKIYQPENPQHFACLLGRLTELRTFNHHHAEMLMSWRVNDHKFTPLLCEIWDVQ
T1 sequence (P19793 whole entry, chain 2 of 2): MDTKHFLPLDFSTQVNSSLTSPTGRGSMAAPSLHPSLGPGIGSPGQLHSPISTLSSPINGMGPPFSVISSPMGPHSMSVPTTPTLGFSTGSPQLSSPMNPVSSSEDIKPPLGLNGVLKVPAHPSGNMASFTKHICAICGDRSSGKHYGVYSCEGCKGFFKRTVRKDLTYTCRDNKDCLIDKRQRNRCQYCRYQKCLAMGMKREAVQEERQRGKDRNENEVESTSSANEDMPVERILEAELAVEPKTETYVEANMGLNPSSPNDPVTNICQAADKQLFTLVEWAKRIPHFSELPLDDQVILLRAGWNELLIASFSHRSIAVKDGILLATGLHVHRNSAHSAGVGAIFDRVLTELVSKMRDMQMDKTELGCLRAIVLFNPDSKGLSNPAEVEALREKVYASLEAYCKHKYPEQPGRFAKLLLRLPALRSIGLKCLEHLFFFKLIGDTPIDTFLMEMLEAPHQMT
Chain of RXRalpha (P19793 whole entry, one chain of several): as the sequence (P19793 whole entry, chain 2 of 2) above

B1: idealized IR1 (dsDNA)
DNA 1: AGGTCAATGACCT
DNA 2: AGGTCATTGACCT
Question: Does B1 bind (FAR-RXRalpha heterodimer [1])?
Answer: binds

B2: IR1m (dsDNA)
DNA 1: AGAACAATGTTCT
DNA 2: AGAACATTGTTCT
Question: Does B2 bind (FAR-RXRalpha heterodimer [2])?
Answer: no binding

B3: hsp27-EcRE x5 MTV-luciferase reporter (dsDNA)
DNA 1: GGTTCAATGCACT
DNA 2: AGTGCATTGAACC
Question: How did the activity (FAR-RXRalpha heterodimer [3]) turn out when B3 was run?
Answer: 17 fold activation

B4: EcREm (mutated hsp27-EcRE) (dsDNA)
DNA 1: CGTTCAATGCACA
DNA 2: TGTGCATTGAACG
Question: Does B4 bind (FAR-RXRalpha heterodimer [4])?
Answer: no binding

B5: hsp27-EcRE (dsDNA)
DNA 1: GGTTCAATGCACT
DNA 2: AGTGCATTGAACC
Question: Does B5 bind (RXRalpha)?
Answer: no binding
